# In patent US20260098059A1 (ENDOMET BIOSCIENCES, published 2026):
# Where “and” joins values, the source holds several entries; their conditions need not be identical. Equal values may be shown once. Bridges are numbered along the chain shown (N, C = ends). Where no end group is shown, it is not given here. [ ]: non-standard residue; d: D form. NMeW = CN[C@@H](Cc1c[nH]c2ccccc12)C(=O)O; Chg = N[C@H](C(=O)O)C1CCCCC1; αMeV = CC(C)[C@](C)(N)C(=O)O; αMeS = C[C@](N)(CO)C(=O)O; NMeA = CN[C@@H](C)C(=O)O
# T1: β-catenin (UniProt P35222 134-665, limits assumed, biotinylated in the SPR and plate assays)
# T1 construct: also called beta catenin; biotinylated β-catenin
# T1 sequence (looked up): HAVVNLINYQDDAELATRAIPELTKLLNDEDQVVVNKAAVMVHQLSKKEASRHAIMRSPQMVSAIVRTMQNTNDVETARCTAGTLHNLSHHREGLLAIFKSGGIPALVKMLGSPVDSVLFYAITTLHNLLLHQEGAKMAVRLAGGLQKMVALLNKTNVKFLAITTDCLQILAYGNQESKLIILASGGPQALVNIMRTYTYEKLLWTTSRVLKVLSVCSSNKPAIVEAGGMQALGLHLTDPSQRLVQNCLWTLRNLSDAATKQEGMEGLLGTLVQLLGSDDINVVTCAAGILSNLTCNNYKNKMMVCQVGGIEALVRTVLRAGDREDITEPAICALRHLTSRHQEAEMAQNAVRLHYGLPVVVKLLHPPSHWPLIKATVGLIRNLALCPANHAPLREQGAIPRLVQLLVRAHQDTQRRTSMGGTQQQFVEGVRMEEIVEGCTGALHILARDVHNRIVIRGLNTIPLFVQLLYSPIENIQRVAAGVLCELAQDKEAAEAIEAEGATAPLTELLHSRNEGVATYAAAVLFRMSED
# Assays:
# [1] = molecular target: T1, β-catenin; test: competitive FP
# Summary of the method: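 Competitive fluorescence polarization with inhibitor peptide serially diluted from 10 nM to 30 uM; polarization read at 470 nm excitation, 520 nm emission. Experiments performed three times.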
# [2] = molecular target: T1, β-catenin; test: cell-based or functional assay
Kd [1],"Proliferation IC50, Wnt dependent cells [2]",Wnt Reporter EC50 [2],"Proliferation IC50, Endo cells [2]",Binder
≤ 0.4 µM,26.8 µM,> 15 µM and ≤ 22.5 µM,–,"WAQKILDEHGQRVWG (HELM PEPTIDE1{[O=C(O)CCC(=O)[*:2]].W.[meA].Q.K.I.L.D.E.H.[O=C([C@@H](N[*:1])C1CCCCC1)[*:2]].Q.R.V.W.G.[am]}$PEPTIDE1,PEPTIDE1,5:R3-9:R3$$$V2.0; SMILES CC[C@H](C)[C@@H]1NC(=O)[C@@H](NC(=O)[C@H](CCC(N)=O)NC(=O)[C@H](C)N(C)C(=O)[C@H](Cc2c[nH]c3ccccc23)NC(=O)CCC(=O)O)CCCCNC(=O)CC[C@@H](C(=O)N[C@@H](Cc2c[nH]cn2)C(=O)N[C@H](C(=O)N[C@@H](CCC(N)=O)C(=O)N[C@@H](CCCNC(=N)N)C(=O)N[C@H](C(=O)N[C@@H](Cc2c[nH]c3ccccc23)C(=O)NCC(N)=O)C(C)C)C2CCCCC2)NC(=O)[C@H](CC(=O)O)NC(=O)[C@H](CC(C)C)NC1=O) [SEQ ID NO: 405]"
> 0.4 µM and ≤ 1 µM,–,> 30 µM,–,ARLPESILDEHVQRVWP (HELM PEPTIDE1{[bAla].R.L.P.E.S.I.L.D.E.H.V.Q.R.V.W.P.[am]}$$$$V2.0; SMILES CC[C@H](C)[C@H](NC(=O)[C@H](CO)NC(=O)[C@H](CCC(=O)O)NC(=O)[C@@H]1CCCN1C(=O)[C@H](CC(C)C)NC(=O)[C@H](CCCNC(=N)N)NC(=O)CCN)C(=O)N[C@@H](CC(C)C)C(=O)N[C@@H](CC(=O)O)C(=O)N[C@@H](CCC(=O)O)C(=O)N[C@@H](Cc1c[nH]cn1)C(=O)N[C@H](C(=O)N[C@@H](CCC(N)=O)C(=O)N[C@@H](CCCNC(=N)N)C(=O)N[C@H](C(=O)N[C@@H](Cc1c[nH]c2ccccc12)C(=O)N1CCC[C@H]1C(N)=O)C(C)C)C(C)C) [SEQ ID NO: 410]
≤ 0.4 µM,–,> 30 µM,–,"WAQKILDEHGQRVWG (HELM PEPTIDE1{W.[meA].Q.K.I.L.D.E.H.[O=C([C@@H](N[*:1])C1CCCCC1)[*:2]].Q.R.V.W.G.[am]}$PEPTIDE1,PEPTIDE1,4:R3-8:R3$$$V2.0; SMILES CC[C@H](C)[C@@H]1NC(=O)[C@@H](NC(=O)[C@H](CCC(N)=O)NC(=O)[C@H](C)N(C)C(=O)[C@@H](N)Cc2c[nH]c3ccccc23)CCCCNC(=O)CC[C@@H](C(=O)N[C@@H](Cc2c[nH]cn2)C(=O)N[C@H](C(=O)N[C@@H](CCC(N)=O)C(=O)N[C@@H](CCCNC(=N)N)C(=O)N[C@H](C(=O)N[C@@H](Cc2c[nH]c3ccccc23)C(=O)NCC(N)=O)C(C)C)C2CCCCC2)NC(=O)[C@H](CC(=O)O)NC(=O)[C@H](CC(C)C)NC1=O) [SEQ ID NO: 403]"
≤ 0.4 µM,–,> 30 µM,–,ARLPESILDEHVQRVWP (HELM PEPTIDE1{[ac].[bAla].R.L.P.E.S.I.L.D.E.H.V.Q.R.V.W.P.[am]}$$$$V2.0; SMILES CC[C@H](C)[C@H](NC(=O)[C@H](CO)NC(=O)[C@H](CCC(=O)O)NC(=O)[C@@H]1CCCN1C(=O)[C@H](CC(C)C)NC(=O)[C@H](CCCNC(=N)N)NC(=O)CCNC(C)=O)C(=O)N[C@@H](CC(C)C)C(=O)N[C@@H](CC(=O)O)C(=O)N[C@@H](CCC(=O)O)C(=O)N[C@@H](Cc1c[nH]cn1)C(=O)N[C@H](C(=O)N[C@@H](CCC(N)=O)C(=O)N[C@@H](CCCNC(=N)N)C(=O)N[C@H](C(=O)N[C@@H](Cc1c[nH]c2ccccc12)C(=O)N1CCC[C@H]1C(N)=O)C(C)C)C(C)C) [SEQ ID NO: 413]
≤ 0.4 µM,–,> 15 µM and ≤ 22.5 µM,–,"WAQKILDDHGQRVWG (HELM PEPTIDE1{[ac].W.[meA].Q.K.I.L.D.D.H.[O=C([C@@H](N[*:1])C1CCCCC1)[*:2]].Q.R.V.W.G.[am]}$PEPTIDE1,PEPTIDE1,5:R3-9:R3$$$V2.0; SMILES CC[C@H](C)[C@@H]1NC(=O)[C@@H](NC(=O)[C@H](CCC(N)=O)NC(=O)[C@H](C)N(C)C(=O)[C@H](Cc2c[nH]c3ccccc23)NC(C)=O)CCCCNC(=O)C[C@@H](C(=O)N[C@@H](Cc2c[nH]cn2)C(=O)N[C@H](C(=O)N[C@@H](CCC(N)=O)C(=O)N[C@@H](CCCNC(=N)N)C(=O)N[C@H](C(=O)N[C@@H](Cc2c[nH]c3ccccc23)C(=O)NCC(N)=O)C(C)C)C2CCCCC2)NC(=O)[C@H](CC(=O)O)NC(=O)[C@H](CC(C)C)NC1=O) [SEQ ID NO: 430]"
≤ 0.4 µM,14.9 µM,> 7.5 µM and ≤ 15 µM,0.8 µM,W[NMeA]QKILDDH[Chg]QRVWG-NH2 (lactam 4-8; not fully specified (N-terminus); printed as H23C11C(O)NH-W-NMeA-QK*ILDD*H-Chg-QRVWG-NH2) [SEQ ID NO: 432]
≤ 0.4 µM,–,> 30 µM,–,"RWPQKILDEHVRRVWR (HELM PEPTIDE1{[ac].R.W.P.Q.K.I.L.D.E.H.V.R.R.V.W.R.[am]}$PEPTIDE1,PEPTIDE1,6:R3-10:R3$$$V2.0; SMILES CC[C@H](C)[C@@H]1NC(=O)[C@@H](NC(=O)[C@H](CCC(N)=O)NC(=O)[C@@H]2CCCN2C(=O)[C@H](Cc2c[nH]c3ccccc23)NC(=O)[C@H](CCCNC(=N)N)NC(C)=O)CCCCNC(=O)CC[C@@H](C(=O)N[C@@H](Cc2c[nH]cn2)C(=O)N[C@H](C(=O)N[C@@H](CCCNC(=N)N)C(=O)N[C@@H](CCCNC(=N)N)C(=O)N[C@H](C(=O)N[C@@H](Cc2c[nH]c3ccccc23)C(=O)N[C@@H](CCCNC(=N)N)C(N)=O)C(C)C)C(C)C)NC(=O)[C@H](CC(=O)O)NC(=O)[C@H](CC(C)C)NC1=O) [SEQ ID NO: 428]"
≤ 0.4 µM,–,> 30 µM,–,H-W[NMeW]ESILDEH[αMeV]QRVWG-NH2 [SEQ ID NO: 39]

# Second part, the binder before the results:
Binder,Kd [1],"Proliferation IC50, Wnt dependent cells [2]",Wnt Reporter EC50 [2],"Proliferation IC50, Endo cells [2]"
W[NMeA]QSILDEHVQKVWG-NH2 (lactam 8-12; not fully specified (N-terminus); printed as H17C8C(O)NH-W-NmeA-QSILDE*HVQK*VWG-NH2) [SEQ ID NO: 438],≤ 0.4 µM,–,≤ 7.5 µM,–
WPQSILDEHGQKVWG (not fully specified; Lauroyl-NH-WPQSILDE*H-Chg-QK*VWG-NH2) [SEQ ID NO: 473],≤ 0.4 µM,–,≤ 7.5 µM,–
WPQSILDEHGQKVWG (not fully specified; Ac-NH-WPQSILDE*H-Chg-QK*VWG-NH2) [SEQ ID NO: 472],≤ 0.4 µM,–,> 7.5 µM and ≤ 15 µM,–
W[NMeA]QSILDEHVQKVWG-NH2 (lactam 8-12; not fully specified (N-terminus); printed as H23C11C(O)NH-W-NmeA-QSILDE*HVQK*VWG-NH2) [SEQ ID NO: 439],≤ 0.4 µM,–,> 7.5 µM and ≤ 15 µM,–
H-W[NMeW]E[αMeS]ILDEH[αMeV]QRVWG-NH2 [SEQ ID NO: 38],≤ 0.4 µM,–,> 30 µM,–
"WAQKILDEHGQRVWR (HELM PEPTIDE1{[ac].W.[meA].Q.K.I.L.D.E.H.[O=C([C@@H](N[*:1])C1CCCCC1)[*:2]].Q.R.V.W.R.[am]}$PEPTIDE1,PEPTIDE1,5:R3-9:R3$$$V2.0; SMILES CC[C@H](C)[C@@H]1NC(=O)[C@@H](NC(=O)[C@H](CCC(N)=O)NC(=O)[C@H](C)N(C)C(=O)[C@H](Cc2c[nH]c3ccccc23)NC(C)=O)CCCCNC(=O)CC[C@@H](C(=O)N[C@@H](Cc2c[nH]cn2)C(=O)N[C@H](C(=O)N[C@@H](CCC(N)=O)C(=O)N[C@@H](CCCNC(=N)N)C(=O)N[C@H](C(=O)N[C@@H](Cc2c[nH]c3ccccc23)C(=O)N[C@@H](CCCNC(=N)N)C(N)=O)C(C)C)C2CCCCC2)NC(=O)[C@H](CC(=O)O)NC(=O)[C@H](CC(C)C)NC1=O) [SEQ ID NO: 449]",≤ 0.4 µM,–,> 30 µM,–
W[NMeA]QKILDDH[Chg]QRVWG-NH2 (lactam 4-8; not fully specified (N-terminus); printed as H17C8C(O)NH-W-NMeA-QK*ILDD*H-Chg-QRVWG-NH2) [SEQ ID NO: 431],≤ 0.4 µM,–,≤ 7.5 µM,–
"WAQKILNEHGQRVWG (HELM PEPTIDE1{[ac].W.[meA].Q.K.I.L.N.E.H.[O=C([C@@H](N[*:1])C1CCCCC1)[*:2]].Q.R.V.W.G.[am]}$PEPTIDE1,PEPTIDE1,5:R3-9:R3$$$V2.0; SMILES CC[C@H](C)[C@@H]1NC(=O)[C@@H](NC(=O)[C@H](CCC(N)=O)NC(=O)[C@H](C)N(C)C(=O)[C@H](Cc2c[nH]c3ccccc23)NC(C)=O)CCCCNC(=O)CC[C@@H](C(=O)N[C@@H](Cc2c[nH]cn2)C(=O)N[C@H](C(=O)N[C@@H](CCC(N)=O)C(=O)N[C@@H](CCCNC(=N)N)C(=O)N[C@H](C(=O)N[C@@H](Cc2c[nH]c3ccccc23)C(=O)NCC(N)=O)C(C)C)C2CCCCC2)NC(=O)[C@H](CC(N)=O)NC(=O)[C@H](CC(C)C)NC1=O) [SEQ ID NO: 435]",≤ 0.4 µM,–,> 30 µM,–
